Consider 3 molecules from publication PMC3836723, “Translation Initiation Factors eIF3 and HCR1 Control Translation Termination and Stop Codon Read-Through in Yeast Cells” (PLoS Genetics, 2013).

For one test, the target named is T1, Myc-tagged RLI1 (yeast, UniProt Q03195 1-608).
T1 construct: chromosomal Myc-tagged allele; also called ABCE1/RLI1; source: chromosomal Myc-tagged allele, yeast strain YDH353, in whole cell extract
In words: co-IP; WCE of yeast YDH353 (chromosomal Myc-tagged RLI1), 500 µg total protein, 1 µl mouse anti-Myc-Tag IgG, with or without antibody; lysis in buffer A (30 mM HEPES pH 8.8, 20 mM KAc, 3 mM magnesium acetate, 1 mM DTT, 1% Nonidet P-40); Western analysis. The conditions noted are these: partners not purified.

The target in the next test is T2, TAP-tagged HCR1 (yeast, UniProt Q05775 1-265).
T2 construct: eIF3j/HCR1, yeast; chromosomal TAP-tagged allele; also called eIF3j/HCR1; source: chromosomal TAP-tagged allele, yeast strain H553, cells treated with 1% HCHO, in whole cell extract
The test can be described thus: pull-down; TAP-tagged chromosomal alleles; cells treated with 1% HCHO before harvest; WCE (1 mg protein) in buffer B (50 mM Tris-HCl pH 7.6, 150 mM NaCl, 0.05% Tween 20) with or without 0.1 mg/ml RNase A; IgG Sepharose 6 Fast Flow beads, 2 h at 4°C; eluted by boiling in SDS buffer or by TEV protease; untagged wt strain as control; Western analysis. As to conditions: partners not purified.

T2 sequence (Q05775 whole entry): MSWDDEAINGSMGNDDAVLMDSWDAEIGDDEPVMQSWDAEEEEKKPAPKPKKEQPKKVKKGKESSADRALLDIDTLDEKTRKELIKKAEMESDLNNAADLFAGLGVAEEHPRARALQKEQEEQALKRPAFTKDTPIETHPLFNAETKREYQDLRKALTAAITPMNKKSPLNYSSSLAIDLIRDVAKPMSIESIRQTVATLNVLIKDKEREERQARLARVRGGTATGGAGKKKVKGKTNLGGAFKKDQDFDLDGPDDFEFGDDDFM

B1: eukaryotic release factor 3 (eRF3) (natural protein, yeast (endogenous in yeast cells), UniProt P05453 1-685, looked up)
chain: MSDSNQGNNQQNYQQYSQNGNQQQGNNRYQGYQAYNAQAQPAGGYYQNYQGYSGYQQGGYQQYNPDAGYQQQYNPQGGYQQYNPQGGYQQQFNPQGGRGNYKNFNYNNNLQGYQAGFQPQSQGMSLNDFQKQQKQAAPKPKKTLKLVSSSGIKLANATKKVGTKPAESDKKEEEKSAETKEPTKEPTKVEEPVKKEEKPVQTEEKTEEKSELPKVEDLKISESTHNTNNANVTSADALIKEQEEEVDDEVVNDMFGGKDHVSLIFMGHVDAGKSTMGGNLLYLTGSVDKRTIEKYEREAKDAGRQGWYLSWVMDTNKEERNDGKTIEVGKAYFETEKRRYTILDAPGHKMYVSEMIGGASQADVGVLVISARKGEYETGFERGGQTREHALLAKTQGVNKMVVVVNKMDDPTVNWSKERYDQCVSNVSNFLRAIGYNIKTDVVFMPVSGYSGANLKDHVDPKECPWYTGPTLLEYLDTMNHVDRHINAPFMLPIAAKMKDLGTIVEGKIESGHIKKGQSTLLMPNKTAVEIQNIYNETENEVDMAMCGEQVKLRIKGVEEEDISPGFVLTSPKNPIKSVTKFVAQIAIVELKSIIAAGFSCVMHVHTAIEEVHIVKLLHKLEKGTNRKSKKPPAFAKKGMKVIAVLETEAPVCVETYQDYPQLGRFTLRDQGTTIAIGKIVKIAE
notes: eRF3 (SUP35), yeast; also called SUP35; source: endogenous, yeast whole cell extract
For the molecule B1, the “percent of input co-precipitated” value with Myc-tagged RLI1 is ~13 % of the input. Besides, the “percent of input co-purified” value with TAP-tagged HCR1 turned out to be 9 ± 0.2%.

B2: ABCE1/RLI1 (natural protein, yeast (endogenous in yeast cells), UniProt Q03195 1-608, looked up)
chain: MSDKNSRIAIVSADKCKPKKCRQECKRSCPVVKTGKLCIEVTPTSKIAFISEILCIGCGICVKKCPFDAIQIINLPTNLEAHVTHRYSANSFKLHRLPTPRPGQVLGLVGTNGIGKSTALKILAGKQKPNLGRFDDPPEWQEIIKYFRGSELQNYFTKMLEDDIKAIIKPQYVDNIPRAIKGPVQKVGELLKLRMEKSPEDVKRYIKILQLENVLKRDIEKLSGGELQRFAIGMSCVQEADVYMFDEPSSYLDVKQRLNAAQIIRSLLAPTKYVICVEHDLSVLDYLSDFVCIIYGVPSVYGVVTLPASVREGINIFLDGHIPAENLRFRTEALQFRIADATEDLQNDSASRAFSYPSLKKTQGDFVLNVEEGEFSDSEILVMMGENGTGKTTLIKLLAGALKPDEGQDIPKLNVSMKPQKIAPKFPGTVRQLFFKKIRGQFLNPQFQTDVVKPLRIDDIIDQEVQHLSGGELQRVAIVLALGIPADIYLIDEPSAYLDSEQRIICSKVIRRFILHNKKTAFIVEHDFIMATYLADKVIVFEGIPSKNAHARAPESLLTGCNRFLKNLNVTFRRDPNSFRPRINKLDSQMDKEQKSSGNYFFLDNTGI
notes: source: endogenous, yeast whole cell extract
B2: the “percent of input co-purified” value in the test with TAP-tagged HCR1 is around 58%.

B3: eukaryotic release factor 1 (eRF1) (natural protein, yeast (endogenous in yeast cells), UniProt P12385 1-437, looked up)
chain: MDNEVEKNIEIWKVKKLVQSLEKARGNGTSMISLVIPPKGQIPLYQKMLTDEYGTASNIKSRVNRLSVLSAITSTQQKLKLYNTLPKNGLVLYCGDIITEDGKEKKVTFDIEPYKPINTSLYLCDNKFHTEVLSELLQADDKFGFIVMDGQGTLFGSVSGNTRTVLHKFTVDLPKKHGRGGQSALRFARLREEKRHNYVRKVAEVAVQNFITNDKVNVKGLILAGSADFKTDLAKSELFDPRLACKVISIVDVSYGGENGFNQAIELSAEALANVKYVQEKKLLEAYFDEISQDTGKFCYGIDDTLKALDLGAVEKLIVFENLETIRYTFKDAEDNEVIKFAEPEAKDKSFAIDKATGQEMDVVSEEPLIEWLAANYKNFGATLEFITDKSSEGAQFVTGFGGIGAMLRYKVNFEQLVDESEDEYYDEDEGSDYDFI
notes: eRF1 (SUP45), yeast; also called SUP45; source: endogenous, yeast whole cell extract
Turning to B3, the “percent of input co-precipitated” value in the test with Myc-tagged RLI1 is ~22 % of the input. Also, the “percent of input co-purified” value with TAP-tagged HCR1 was around 2%.
